# Laboratory results taken from patent publication US20180044434A1 (PUBLIC UNIVERSITY CORPORATION YOKOHAMA CITY UNIVERSITY, published 2018).
# Substitutions are numbered along the chain they refer to.
# B1: humanized anti-PAD4 antibody derived from G8, VH H4.15 / VL L4.00 (antibody, human IgG1, kappa, V domains shown)
# VH: EVQLLESGGGLVQPGGSLRLSCAASGFTFSTYAMGWVRQAPGKGLEFVSAIRNDGSWTGYGAAVKGRFTISRDNSKNTVYLQMNSLRAEDTAVYYCAKYTGSSGGSIGAWGQGTLVTVSS
# VL: SYELTQPPSVSVSPGQTARITCSGGNRNYYYGWYQQKPGQAPVLVIYANDKRPSGIPERFSGSSSGTTVTLTISGVQAEDEADYYCGTADTGKYVFGGGTKLTVLG
# notes: IgG1 kappa; also called G8 H4.15/L4.00
# B2: humanized anti-PAD4 antibody derived from G8, VH H4.15 / VL L4.17 (antibody, human IgG1, kappa, V domains shown)
# VH: B1 VH
# VL: B1 VL with L44T, S64T, T67N, V69T
# notes: IgG1 kappa; also called G8 H4.15/L4.17
# B3: humanized anti-PAD4 antibody derived from G8, VH H4.15 / VL L4.06 (antibody, human IgG1, kappa, V domains shown)
# VH: B1 VH
# VL: B1 VL with L44T, S64Y, T67N, V69T
# notes: IgG1 kappa; also called G8 H4.15/L4.06
# B4: humanized anti-PAD4 antibody derived from H7, VH H4.00 / VL L4.15 (antibody, IgG1, V domains shown)
# VH: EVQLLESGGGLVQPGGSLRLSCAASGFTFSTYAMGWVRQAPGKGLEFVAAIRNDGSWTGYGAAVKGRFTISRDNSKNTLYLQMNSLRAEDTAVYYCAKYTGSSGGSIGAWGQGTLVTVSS
# VL: SYELTQPPSVSVSPGQTARITCSGGSGRYYYGWYQQKPGQAPVTVIYSSTHRPSGIPERFSGSNSGNTTTLTISGVQAEDEADYYCGTADSSSYVFGGGTKLTVLG
# notes: IgG1 kappa; also called H7 H4.00/L4.15
# B5: humanized anti-PAD4 antibody derived from H7, VH H4.32 / VL L4.17 (antibody, IgG1, V domains shown)
# VH: B1 VH with S49A, F68V
# VL: B4 VL with N64T
# notes: IgG1 kappa; also called H7 H4.32/L4.17
# B6: humanized anti-PAD4 antibody derived from G8, VH H4.00 / VL L4.06 (antibody, human IgG1, kappa, V domains shown)
# VH: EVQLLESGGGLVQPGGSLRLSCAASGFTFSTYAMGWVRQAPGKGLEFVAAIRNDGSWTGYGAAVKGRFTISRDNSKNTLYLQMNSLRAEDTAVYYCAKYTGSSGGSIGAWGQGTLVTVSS
# VL: B1 VL with L44T, S64Y, T67N, V69T
# notes: IgG1 kappa; also called G8 H4.00/L4.06
# B7: humanized anti-PAD4 antibody derived from H7, VH H4.15 / VL L4.00 (antibody, IgG1, V domains shown)
# VH: B1 VH
# VL: B4 VL with T44L, N64S, N67T, T69V
# notes: IgG1 kappa; also called H7 H4.15/L4.00
# B8: humanized anti-PAD4 antibody derived from H7, VH H4.15 / VL L4.17 (antibody, IgG1, V domains shown)
# VH: B1 VH
# VL: B4 VL with N64T
# notes: IgG1 kappa; also called H7 H4.15/L4.17
# B9: humanized anti-PAD4 antibody derived from H7, VH H4.00 / VL L4.17 (antibody, IgG1, V domains shown)
# VH: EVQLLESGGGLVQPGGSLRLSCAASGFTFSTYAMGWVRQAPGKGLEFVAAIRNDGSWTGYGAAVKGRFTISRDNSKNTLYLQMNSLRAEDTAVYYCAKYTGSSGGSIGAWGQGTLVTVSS
# VL: B4 VL with N64T
# notes: IgG1 kappa; also called H7 H4.00/L4.17
# B10: humanized anti-PAD4 antibody derived from G8, VH H4.00 / VL L4.17 (antibody, human IgG1, kappa, V domains shown)
# VH: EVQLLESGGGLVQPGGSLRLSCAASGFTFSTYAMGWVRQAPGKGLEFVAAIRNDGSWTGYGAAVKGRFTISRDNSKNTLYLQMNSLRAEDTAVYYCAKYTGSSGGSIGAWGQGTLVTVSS
# VL: B1 VL with L44T, S64T, T67N, V69T
# notes: IgG1 kappa; also called G8 H4.00/L4.17
# B11: humanized anti-PAD4 antibody derived from H7, VH H4.00 / VL L4.06 (antibody, IgG1, V domains shown)
# VH: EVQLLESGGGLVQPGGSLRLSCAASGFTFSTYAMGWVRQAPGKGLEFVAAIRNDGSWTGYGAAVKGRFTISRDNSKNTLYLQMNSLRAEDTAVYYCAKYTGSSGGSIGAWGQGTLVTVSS
# VL: B4 VL with N64Y
# notes: IgG1 kappa; also called H7 H4.00/L4.06
# B12: humanized anti-PAD4 antibody derived from H7, VH H4.00 / VL L4.00 (antibody, IgG1, V domains shown)
# VH: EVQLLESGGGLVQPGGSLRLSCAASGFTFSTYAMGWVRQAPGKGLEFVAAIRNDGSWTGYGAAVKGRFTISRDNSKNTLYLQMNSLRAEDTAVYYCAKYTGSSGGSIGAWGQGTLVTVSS
# VL: B4 VL with T44L, N64S, N67T, T69V
# notes: IgG1 kappa; also called H7 H4.00/L4.00
# B13: humanized anti-PAD4 antibody derived from H7, VH H4.15 / VL L4.06 (antibody, IgG1, V domains shown)
# VH: B1 VH
# VL: B4 VL with N64Y
# notes: IgG1 kappa; also called H7 H4.15/L4.06
# B14: humanized anti-PAD4 antibody derived from H7, VH H4.32 / VL L4.00 (antibody, IgG1, V domains shown)
# VH: B1 VH with S49A, F68V
# VL: B4 VL with T44L, N64S, N67T, T69V
# notes: IgG1 kappa; also called H7 H4.32/L4.00
# B15: humanized anti-PAD4 antibody derived from H7, VH H4.15 / VL L4.15 (antibody, IgG1, V domains shown)
# VH: B1 VH
# VL: B4 VL
# notes: IgG1 kappa; also called H7 H4.15/L4.15
# B16: humanized anti-PAD4 antibody derived from H7, VH H4.32 / VL L4.06 (antibody, IgG1, V domains shown)
# VH: B1 VH with S49A, F68V
# VL: B4 VL with N64Y
# notes: IgG1 kappa; also called H7 H4.32/L4.06
# B17: humanized anti-PAD4 antibody derived from H7, VH H4.32 / VL L4.15 (antibody, IgG1, V domains shown)
# VH: B1 VH with S49A, F68V
# VL: B4 VL
# notes: IgG1 kappa; also called H7 H4.32/L4.15
# Biological target: T1, full-length recombinant human PAD4 (human, UniProt Q9UM07 1-663)
# T1 construct: Full-length recombinant; also called peptidylarginine deiminase 4
# Test: ELISA, immobilized human PAD4
# T1 sequence (Q9UM07 whole entry): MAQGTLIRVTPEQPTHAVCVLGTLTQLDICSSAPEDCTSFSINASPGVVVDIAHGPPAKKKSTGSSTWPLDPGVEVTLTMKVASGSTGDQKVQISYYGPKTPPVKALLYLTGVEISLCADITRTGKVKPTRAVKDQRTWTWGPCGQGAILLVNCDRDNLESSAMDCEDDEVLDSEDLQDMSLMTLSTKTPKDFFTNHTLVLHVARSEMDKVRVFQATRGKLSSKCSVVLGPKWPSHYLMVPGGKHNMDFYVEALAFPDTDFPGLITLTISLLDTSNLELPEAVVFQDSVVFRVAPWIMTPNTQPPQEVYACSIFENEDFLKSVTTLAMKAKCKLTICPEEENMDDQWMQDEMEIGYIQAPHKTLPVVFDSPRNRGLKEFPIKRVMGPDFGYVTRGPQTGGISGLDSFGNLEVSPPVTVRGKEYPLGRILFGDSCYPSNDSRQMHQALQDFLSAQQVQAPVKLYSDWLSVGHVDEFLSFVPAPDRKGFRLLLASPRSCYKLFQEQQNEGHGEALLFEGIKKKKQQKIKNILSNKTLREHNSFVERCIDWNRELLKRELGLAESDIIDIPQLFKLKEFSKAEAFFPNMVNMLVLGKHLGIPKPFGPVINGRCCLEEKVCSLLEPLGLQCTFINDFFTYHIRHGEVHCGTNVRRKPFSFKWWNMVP
Binder,O.D. 490/630 at 0.0078125 µg/mL,O.D. 490/630 at 0.015625 µg/mL,O.D. 490/630 at 0.03125 µg/mL,O.D. 490/630 at 0.0625 µg/mL,O.D. 490/630 at 0.125 µg/mL,O.D. 490/630 at 0.25 µg/mL,O.D. 490/630 at 0.5 µg/mL,O.D. 490/630 at 1 µg/mL
B1,0.707,1.11,1.52,1.84,1.87,1.87,1.86,1.85
B2,1.24,1.66,1.86,1.93,1.87,1.81,1.82,1.83
B3,1.31,1.68,1.9,1.92,1.91,1.87,1.79,1.77
B4,1.31,1.71,1.89,1.92,1.87,1.89,1.87,1.86
B5,1.28,1.77,1.95,1.98,1.86,1.86,1.81,1.79
B6,1.22,1.64,1.83,1.95,1.85,1.81,1.83,1.8
B7,0.429,0.764,1.23,1.71,1.84,1.9,1.88,1.86
B8,1.31,1.63,1.81,1.9,1.81,1.81,1.82,1.77
B9,1.3,1.71,1.85,1.91,1.87,1.86,1.85,1.86
B10,1.31,1.62,1.84,1.89,1.82,1.81,1.8,1.8
B11,1.26,1.75,1.9,2,1.87,1.89,1.86,1.86
B12,0.441,0.752,1.21,1.72,1.88,1.89,1.91,1.92
B13,1.22,1.68,1.82,1.83,1.84,1.82,1.82,1.84
B14,0.389,0.713,1.17,1.65,1.77,1.85,1.81,1.82
B15,1.25,1.65,1.82,1.87,1.83,1.84,1.83,1.82
B16,1.22,1.64,1.9,1.94,1.82,1.86,1.81,1.77
B17,1.34,1.77,1.89,1.94,1.87,1.84,1.78,1.79
